Our source for the IC50 and EC50 values is publication PMC12302718, “Molecular basis for Gβγ-SNARE-mediated inhibition of synaptic vesicle fusion” (The Journal of Biological Chemistry, 2025).

Where no end group is shown, it is not given here. Where only a bound is given, the exact number is not on record here.

Usually IC50 stands for the point on the concentration scale where inhibition reaches its midpoint. A high value points to weaker potency. For orientation: EC50 means the concentration that produces a half-maximal response.

The chains are these.
B1: Nanobody-5 (Nb5) (VHH)
VHH: QVQLVESGGGLVQAGGSLRLSCAASGSIFSINAMGWYRQAPGKQRELVAAITRGGRTNYADSVKGRFTLSRDNAKNTVYLQMNSLKPEDTAVYYCNVGRSRGYWGQGTQVTVSS
notes: as the chain of m17; source: expressed and purified as described previously (53); plasmid a gift of the Palczewski laboratory
B2: biotinylated Nb5 (VHH)
VHH: QVQLVESGGGLVQAGGSLRLSCAASGSIFSINAMGWYRQAPGKQRELVAAITRGGRTNYADSVKGRFTLSRDNAKNTVYLQMNSLKPEDTAVYYCNVGRSRGYWGQGTQVTVSS
notes: also called Nanobody-5; source: expressed and purified as described previously (53); plasmid a gift of the Palczewski laboratory
B3: Gγ2, res. 1–15 peptide (peptide)
peptide: MASNNTASIAQARKL
modifications: on the array: C-terminus coupled to the membrane
notes: Gγ2, human, residues 1-15; also called Gγ2 N-terminal peptide; Gγ2 amino-terminal peptide; source: synthetic peptide: SPOT array on membrane (ResPep SL)
B4: Gγ13, res. 16–30 peptide (peptide)
peptide: LKYQLAFQREMASKT
modifications: on the array: C-terminus coupled to the membrane
notes: Gγ13, human, residues 16-30; source: synthetic peptide: SPOT array on membrane (ResPep SL)
B5: Gγ5, res. 49–63 peptide (peptide)
peptide: LTGVSSSTNPFRPQK
modifications: on the array: C-terminus coupled to the membrane
notes: Gγ5, human, residues 49-63; source: synthetic peptide: SPOT array on membrane (ResPep SL)
B6: Gγ8, res. 52–66 peptide (peptide)
peptide: PVPAAENPFRDKRLF
modifications: on the array: C-terminus coupled to the membrane
notes: Gγ8, human, residues 52-66; source: synthetic peptide: SPOT array on membrane (ResPep SL)
B7: Gγ1, res. 1–15 peptide (peptide)
peptide: MPVINIEDLTEKDKL
notes: Gγ1, human, residues 1-15; also called Gγ1 N-terminal peptide; source: peptide stock in DMSO
B8: Gγ3, res. 13–27 peptide (peptide)
peptide: IGQARKMVEQLKIEA
modifications: also: C-terminus coupled to the membrane
notes: Gγ3, human, residues 13-27; source: synthetic peptide: SPOT array on membrane (ResPep SL)
B9: Gγ2, res. 52–66 peptide (peptide)
peptide: TPVPASENPFREKKF
modifications: on the array: C-terminus coupled to the membrane
notes: Gγ2, human, residues 52-66; also called Gγ2 peptide 18 (by the array's scheme of 15-mers shifted by three); source: synthetic peptide: SPOT array on membrane (ResPep SL)
B10: Gγ12, res. 7–21 peptide (peptide)
peptide: STNNIAQARRTVQQL
modifications: on the array: C-terminus coupled to the membrane
notes: Gγ12, human, residues 7-21; source: synthetic peptide: SPOT array on membrane (ResPep SL)
B11: Gγ3, res. 56–70 peptide (peptide)
peptide: ITPVPTSENPFREKK
modifications: on the array: C-terminus coupled to the membrane
notes: Gγ3, human, printed as residues 56-70; source: synthetic peptide: SPOT array on membrane (ResPep SL)
B12: Gγ10, res. 4–18 peptide (peptide)
peptide: GASASALQRLVEQLK
modifications: on the array: C-terminus coupled to the membrane
notes: Gγ10, human, residues 4-18; source: synthetic peptide: SPOT array on membrane (ResPep SL)

The first assay deals with T1, His-tagged soluble Gβ1γ2 (C68S) (UniProt P62873;P59768, C68S).
T1 construct: G-protein subunit β1 (Gβ1); G-protein subunit γ2 (Gγ2) with C68S (soluble); it is entered on Gβ1; For MST the His tag was labelled with Red-tris-NTA; also called full-length Gβ1γ2; His6-Gβ1γ2; source: Sf9 cells, purified as previously described (69)
In words: AlphaScreen or HTRF; competition: Nb5 0.4 nM-1.26 μM; biotinylated SNAP25 with an EC80 concentration of His-tagged Gβ1γ2. The settings on record: both partners purified. Background: Bead proximity is the source of the signal in Alpha formats.
Molecule B1 gave an IC50 of 24.6 nM.

For another assay, the target named is T2, His-tagged soluble Gβ1γ2 (C68S) (UniProt P62873 1-340; P59768 1-71, C68S).
T2 construct: G-protein subunit β1 (Gβ1); G-protein subunit γ2 (Gγ2) with C68S (soluble); it is entered on Gβ1; For MST the His tag was labelled with Red-tris-NTA; also called full-length Gβ1γ2; His6-Gβ1γ2; source: Sf9 cells, purified as previously described (69)
In words: AlphaScreen or HTRF; competition: SNAP25 C-terminal peptide (189-206) against biotinylated full-length SNAP25 for His6-Gβ1γ2. The conditions noted are these: both partners purified.
Regarding KTRIDEANQRATKMLGSG (peptide, UniProt P60880 189-206, looked up, also called C-terminal SNAP25 peptide) [SNAP25 C-terminal peptide (residues 189–206)], the IC50 stood at 1840 nM.

For the next assay, the target named is T1, His-tagged soluble Gβ1γ2 (C68S). The experiment in a line: AlphaScreen or HTRF; direct binding: 20 nM biotinylated Nb5 with 0.1 nM-1 μM His-tagged Gβ1γ2; concentration-response curves fitted for EC50. The settings on record: both partners purified.
B2 displayed an EC50 of 3.72 nM.

The next assay deals with T3, biotinylated SNAP25 (UniProt P60880 1-206, biotin (site not stated)).
T3 construct: SNAP25, wild type; also called full-length SNAP25; synaptosomal-associated protein-25; source: expressed and purified as described (12, 39)
The experiment in a line: AlphaScreen or HTRF; competition: Gγ peptides 1 nM-100 μM; 20 nM biotinylated SNAP25 on streptavidin donor beads, 180 nM His6-Gβ1γ2 on nickel chelate acceptor beads; 20 mM HEPES pH 7.0, 10 mM NaCl, 40 mM KCl, 5% glycerol, 0.01% Triton X-100; 27 °C. The settings on record: both partners purified.
B3 registered a half-inhibitory concentration (IC50) of 540 nM.

B4 yielded an IC50 of 9460 nM.

B5: the IC50 was found to be 1720 nM.

On to B6, for which the IC50 was 640 nM.

With B7, the IC50 was more than 100000 nM.

In turn, B8 showed an IC50 of 4040 nM.

B9 returned a concentration for half-maximal inhibition (IC50) of 12600 nM.

In turn, B10 registered an IC50 of 2910 nM.

In turn, B11 gave an IC50 of 7010 nM.

B12 showed an IC50 of 430 nM.
